For experiment [1], the target named is human CD36 (cluster of differentiation 36), ectodomain, Fc-fusion (human). Briefly: BLI; Octet RED96; Fc-tagged receptor immobilised on protein G (ProG) biosensor, twofold serial dilution of His-tagged parasite ligand in HBS; KD from the response in equilibrium against concentration.
Experiment [2] addresses T1, Plasmodium vivax Duffy binding protein region II (PvDBP-RII), residues 194 to 521, His-tagged (Plasmodium vivax, UniProt P22290 194-521, biotin (biotinylated with co-transfected secreted E. coli BirA and D-biotin, for the ELISA bait)).
T1 construct: source: HEK293E, transfected, culture supernatant, purified (Ni-NTA agarose); not shown: His, C-terminal, kept
The experiment is described as above. The conditions noted are these: both partners purified.

Regarding “Plasmodium vivax merozoite-specific thrombospondin-related anonymous protein (PvMTRAP), full-length ectodomain, His-tagged (domain or fragment)”, in experiment [1], the Kd was found to be 37 nM.

B1: Duffy antigen receptor for chemokines (DARC, CD234), residues 1 to 63, Fc-fusion (Fc fusion, human, UniProt Q16570 1-63, looked up)
chain: MGNCLHRAELSPSTENSSQLDFEDVWNSSYGVNDSFPDGDYGANLEAAAPCHSCNLLDDSALP
notes: Duffy antigen receptor for chemokines (CD234), human, residues 1 to 63; also called human DARC; source: HEK293E, transfected, culture supernatant, purified (HiTrap Protein G HP); not shown: Fc, C-terminal, kept
Take B1: the Kd in experiment [2] is 7.7 nM.

As a reminder, the Kd is a measure of binding affinity in units of concentration.

(Values after article PMC10658926, “Plasmodium vivax merozoite-specific thrombospondin-related anonymous protein (PvMTRAP) interacts with human CD36, suggesting a novel ligand–receptor interaction for reticulocyte invasion” (Parasites & Vectors, 2023).)
